Results taken from the supplement of paper PMC9876800.

System: peptide library, one residue held at a place counted from the S/T acceptor
Experiment: relative phosphorylation of the sub-library (ratio to the mean residue at this position); higher = residue favoured
Conditions: human
Method in brief: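 Relative sub-library phosphorylation is a ratio to the mean residue at the same position. Purified recombinant kinases were incubated under kinase-specific conditions with biotinylated degenerate peptide sub-libraries, each fixing one residue at one position around a central Ser/Thr, using 50 μM peptide and 50 μM ATP spiked with γ-32P-ATP for 90 min. Spots captured on streptavidin membranes were phosphorimaged and quantified by densitometry.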

Sequence of CDC7, construct: Full length (O00311 whole entry, looked up): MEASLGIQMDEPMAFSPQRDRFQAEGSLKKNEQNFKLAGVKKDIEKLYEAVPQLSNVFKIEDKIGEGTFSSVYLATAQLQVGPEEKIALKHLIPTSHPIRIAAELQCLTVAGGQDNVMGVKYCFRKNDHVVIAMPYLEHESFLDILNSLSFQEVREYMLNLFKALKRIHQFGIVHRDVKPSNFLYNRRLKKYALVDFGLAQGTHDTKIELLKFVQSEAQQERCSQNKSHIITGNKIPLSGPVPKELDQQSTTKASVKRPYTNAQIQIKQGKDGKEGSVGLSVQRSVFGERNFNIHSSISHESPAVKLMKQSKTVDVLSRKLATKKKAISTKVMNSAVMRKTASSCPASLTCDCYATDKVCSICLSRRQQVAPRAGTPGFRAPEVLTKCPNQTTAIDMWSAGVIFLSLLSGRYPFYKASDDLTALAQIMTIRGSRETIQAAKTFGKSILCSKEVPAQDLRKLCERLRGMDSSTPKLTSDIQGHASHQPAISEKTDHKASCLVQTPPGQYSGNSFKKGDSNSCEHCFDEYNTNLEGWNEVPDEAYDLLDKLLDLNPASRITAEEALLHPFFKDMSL
Sequence of ERN2, construct: aa490-end (Q76MJ5 490-926, looked up): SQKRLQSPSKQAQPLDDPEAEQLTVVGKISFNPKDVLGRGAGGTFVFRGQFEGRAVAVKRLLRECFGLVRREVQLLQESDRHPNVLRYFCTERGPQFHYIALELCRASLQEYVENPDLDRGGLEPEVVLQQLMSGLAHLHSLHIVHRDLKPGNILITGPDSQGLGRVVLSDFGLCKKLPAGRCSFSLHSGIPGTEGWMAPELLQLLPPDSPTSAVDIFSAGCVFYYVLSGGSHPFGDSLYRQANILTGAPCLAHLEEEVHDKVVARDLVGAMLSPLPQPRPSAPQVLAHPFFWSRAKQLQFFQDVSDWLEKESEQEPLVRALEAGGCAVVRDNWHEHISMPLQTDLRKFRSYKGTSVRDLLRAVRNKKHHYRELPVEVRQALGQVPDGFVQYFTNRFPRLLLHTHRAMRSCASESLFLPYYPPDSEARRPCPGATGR
Sequence of ACVR1, construct: aa175-end (Q04771 175-509, looked up): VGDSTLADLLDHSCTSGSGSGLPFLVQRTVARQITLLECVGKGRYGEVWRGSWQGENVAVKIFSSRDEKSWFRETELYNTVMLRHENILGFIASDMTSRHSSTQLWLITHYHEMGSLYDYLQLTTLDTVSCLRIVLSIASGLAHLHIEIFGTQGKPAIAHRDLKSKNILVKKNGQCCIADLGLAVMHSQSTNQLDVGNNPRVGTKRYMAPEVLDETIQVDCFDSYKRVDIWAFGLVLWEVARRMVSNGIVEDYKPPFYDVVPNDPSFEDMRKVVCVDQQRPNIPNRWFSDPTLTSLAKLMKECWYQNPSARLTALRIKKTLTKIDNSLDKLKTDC

ACVR1, construct: aa175-end (from UniProt Q04771)
relative phosphorylation
Conditions | at +1 | at +2 | at +3 | at +4 | at -1 | at -2 | at -3 | at -4 | at -5
A fixed | 0.713 | 0.98 | 0.912 | 0.81 | 0.74 | 0.525 | 0.897 | 0.886 | 1.13
D fixed | 1.5 | 1.84 | 1.47 | 1.69 | 1.48 | 1.93 | 1.51 | 1.64 | 1.22
E fixed | 4.11 | 1.99 | 1.81 | 1.76 | 1.68 | 6.6 | 1.78 | 1.44 | 1.15
F fixed | 0.752 | 0.713 | 0.962 | 1.01 | 0.857 | 0.467 | 0.944 | 0.88 | 1.08
G fixed | 0.737 | 1.39 | 0.909 | 0.972 | 0.515 | 0.715 | 1.22 | 1.15 | 1.12
H fixed | 0.787 | 1.15 | 0.932 | 0.918 | 1.04 | 0.55 | 1.03 | 0.953 | 1.03
I fixed | 0.87 | 0.581 | 0.762 | 0.804 | 0.985 | 0.511 | 0.885 | 0.946 | 0.896
K fixed | 0.382 | 0.709 | 0.53 | 0.676 | 0.572 | 0.406 | 0.651 | 0.77 | 0.938
L fixed | 0.728 | 0.616 | 0.856 | 0.738 | 1.35 | 0.678 | 0.899 | 0.958 | 0.861
M fixed | 0.795 | 0.683 | 0.97 | 0.955 | 1.62 | 0.89 | 1.02 | 0.94 | 0.964
N fixed | 0.771 | 0.927 | 1.04 | 1.01 | 1 | 0.714 | 1.12 | 0.803 | 0.948
P fixed | 0.375 | 1.02 | 1.1 | 0.976 | 0.49 | 0.404 | 0.937 | 0.872 | 0.91
Q fixed | 0.726 | 0.876 | 0.857 | 1.01 | 0.846 | 0.739 | 0.775 | 0.791 | 0.739
R fixed | 0.453 | 0.868 | 0.647 | 0.714 | 0.673 | 0.531 | 0.781 | 0.769 | 0.902
V fixed | 1.19 | 0.638 | 0.847 | 0.783 | 0.975 | 0.462 | 0.732 | 0.834 | 0.954
W fixed | 1.04 | 0.82 | 1.26 | 1.26 | 0.903 | 0.458 | 0.864 | 1.23 | 1.18
Y fixed | 1.07 | 1.19 | 1.14 | 0.927 | 1.27 | 0.429 | 0.972 | 1.15 | 0.997
pThr fixed | 2.36 | 1.57 | 1.05 | 1.59 | 1.04 | 1.8 | 1.41 | 1.05 | 1.06
pTyr fixed | 2.25 | 1.4 | 1.32 | 1.25 | 1.37 | 0.678 | 1.37 | 1.22 | 1.17

CDC7, construct: Full length (from UniProt O00311)
relative phosphorylation
Conditions | at +1 | at +2 | at +3 | at +4 | at -1 | at -2 | at -3 | at -4 | at -5
A fixed | 0.668 | 1.31 | 0.87 | 0.939 | 1.13 | 1.05 | 0.87 | 0.99 | 1.26
D fixed | 2.92 | 0.854 | 2.1 | 0.91 | 0.674 | 1.19 | 1.06 | 1.27 | 0.99
E fixed | 4.74 | 0.689 | 1.03 | 0.832 | 0.819 | 1.13 | 1.15 | 1.04 | 0.856
F fixed | 0.577 | 0.712 | 1.35 | 1.04 | 1.04 | 0.895 | 0.91 | 0.949 | 0.988
G fixed | 0.629 | 1.69 | 1.37 | 1.02 | 1.11 | 0.778 | 1 | 0.929 | 0.934
H fixed | 0.513 | 0.887 | 1.02 | 1.08 | 1 | 0.787 | 0.836 | 0.977 | 1.09
I fixed | 0.549 | 0.834 | 0.864 | 1.01 | 0.485 | 1.07 | 0.849 | 0.82 | 0.93
K fixed | 0.444 | 0.596 | 0.561 | 0.769 | 1.31 | 0.72 | 0.802 | 0.909 | 0.954
L fixed | 0.563 | 1.02 | 0.874 | 0.984 | 0.982 | 1.4 | 0.933 | 0.943 | 0.926
M fixed | 0.765 | 0.893 | 0.676 | 0.932 | 1.18 | 1.11 | 0.894 | 0.921 | 0.95
N fixed | 0.691 | 1.13 | 0.897 | 0.878 | 0.884 | 0.715 | 0.888 | 0.955 | 0.979
P fixed | 0.459 | 1.84 | 0.945 | 1.15 | 1.01 | 1.64 | 1.06 | 1.11 | 0.914
Q fixed | 1.31 | 0.756 | 0.694 | 0.782 | 0.781 | 0.749 | 0.848 | 0.866 | 0.77
R fixed | 0.472 | 0.816 | 0.506 | 0.723 | 1.11 | 1.06 | 1.65 | 0.907 | 1.06
V fixed | 0.612 | 0.737 | 0.761 | 0.894 | 0.671 | 0.988 | 0.856 | 0.935 | 0.943
W fixed | 0.567 | 1.44 | 1.23 | 1.48 | 1.59 | 0.854 | 1.33 | 1.36 | 1.28
Y fixed | 0.523 | 0.796 | 1.25 | 1.58 | 1.23 | 0.884 | 1.06 | 1.12 | 1.18
pThr fixed | 2.38 | 0.801 | 1.41 | 1.34 | 0.583 | 1.12 | 1.46 | 1.13 | 0.831
pTyr fixed | 0.631 | 0.537 | 0.792 | 1.15 | 0.684 | 0.717 | 1.06 | 0.937 | 0.844

ERN2, construct: aa490-end (from UniProt Q76MJ5)
relative phosphorylation
Conditions | at +1 | at +2 | at +3 | at +4 | at -1 | at -2 | at -3 | at -4 | at -5
A fixed | 0.889 | 0.315 | 0.399 | 0.712 | 1.08 | 0.826 | 0.865 | 0.986 | 0.969
D fixed | 0.292 | 0.208 | 0.22 | 0.365 | 0.7 | 0.969 | 0.947 | 0.892 | 0.961
E fixed | 0.428 | 0.217 | 0.165 | 0.347 | 1.19 | 1.29 | 1.02 | 0.918 | 0.87
F fixed | 0.683 | 0.733 | 1.24 | 0.849 | 0.953 | 0.865 | 0.676 | 0.677 | 0.695
G fixed | 1.16 | 0.332 | 0.407 | 0.844 | 0.758 | 1.11 | 1.32 | 1.04 | 1.01
H fixed | 0.924 | 0.767 | 1.27 | 1.08 | 1.6 | 1.08 | 1.17 | 1.17 | 1.24
I fixed | 0.78 | 1.09 | 1.22 | 1.04 | 0.459 | 0.672 | 0.792 | 0.732 | 0.796
K fixed | 2.19 | 2.21 | 1.39 | 1.94 | 0.955 | 1.43 | 1.12 | 1.53 | 1.6
L fixed | 0.702 | 1.39 | 1.38 | 0.935 | 0.58 | 0.592 | 0.66 | 0.693 | 0.691
M fixed | 1.24 | 1.32 | 0.95 | 0.996 | 0.951 | 0.814 | 0.861 | 0.751 | 0.704
N fixed | 0.997 | 0.507 | 0.441 | 0.763 | 0.986 | 1.1 | 1.21 | 1.38 | 1.17
P fixed | 0.247 | 0.305 | 0.346 | 1.15 | 1.47 | 1.37 | 1.09 | 0.914 | 0.915
Q fixed | 1.44 | 0.787 | 0.591 | 1.04 | 1.42 | 1.25 | 1.27 | 1.14 | 1.14
R fixed | 2.95 | 2.57 | 3.56 | 1.81 | 0.94 | 1.5 | 1.42 | 1.57 | 1.78
V fixed | 0.809 | 1.16 | 0.669 | 0.86 | 0.927 | 0.732 | 0.776 | 0.759 | 0.704
W fixed | 0.572 | 0.72 | 1.45 | 1.21 | 0.798 | 0.651 | 0.875 | 0.994 | 0.893
Y fixed | 0.694 | 2.36 | 1.3 | 1.04 | 1.23 | 0.769 | 0.941 | 0.858 | 0.858
pThr fixed | 0.298 | 0.212 | 0.237 | 0.355 | 0.355 | 0.648 | 0.798 | 0.779 | 0.732
pTyr fixed | 0.286 | 0.235 | 0.283 | 0.296 | 0.692 | 0.694 | 0.652 | 0.474 | 0.562
